Data as given in patent US20240425589A1, “CYTOTOXICITY-INDUCING THERAPEUTIC AGENT FOR USE IN TREATMENT OF CANCER” (CHUGAI SEIYAKU KABUSHIKI KAISHA, priority 2021, published 2024).

Tests used:
recombinant human CD137 = biological target: T1, recombinant human CD137 (Homo sapiens, UniProt Q07011); assay: Biacore T200 SPR affinity of Dual-Fab antibodies to human CD137; type: binding; details: 37 degrees C, pH 7.4
T1 construct: made in house; host or cells: FreeStyle293F
From the text: Human CD137 extracellular domain (ECD) (SEQ ID NO: 179) with hexahistidine (His-tag) and biotin acceptor peptide (BAP) on its C-terminus was expressed transiently using FreeStyle293F cell line (Thermo Fisher). Conditioned media expressing human CD137 ECD was applied to a HisTrap HP column (GE healthcare) and eluted with buffer containing imidazole (Nacalai). Fractions containing human CD137 ECD were collected and subsequently subjected to a Superdex 200 gel filtration column (GE healthcare) equilibrated with 1×D-PBS. Fractions containing human CD137 ECD were then pooled and stored at −80 degrees C.
(§1) Binding affinity of Dual-Fab antibodies (Dual-Ig) to human CD3 were assessed at 25 degrees C. using Biacore T200 instrument (GE Healthcare). Anti-human Fc (GE Healthcare) was immobilized onto all flow cells of a CM4 sensor chip using amine coupling kit (GE Healthcare). Antibodies were captured onto the anti-Fc sensor surfaces, then recombinant human CD3 or CD137 was injected over the flow cell. All antibodies and analytes were prepared in ACES pH 7.4 containing 20 mM ACES, 150 mM NaCl, 0.05% Tween 20, and 0.005% NaN3. Sensor surface was regenerated each cycle with 3M MgCl2. Binding affinity were determined by processing and fitting the data to 1:1 binding model using Biacore T200 Evaluation software, version 2.0 (GE Healthcare). CD137 binding affinity assay was conducted in same condition except assay temperature was set at 37 degrees C.

[1] = biological target: T2, recombinant human CD3 (human CD3eg linker) (Homo sapiens, UniProt P07766+P09693); assay: Biacore T200 SPR affinity of Dual-Fab antibodies to human CD3; type: binding; details: 25 degrees C, pH 7.4
T2 construct: made in house; host or cells: FreeStyle293F
T2 sequence (P07766+P09693 fused): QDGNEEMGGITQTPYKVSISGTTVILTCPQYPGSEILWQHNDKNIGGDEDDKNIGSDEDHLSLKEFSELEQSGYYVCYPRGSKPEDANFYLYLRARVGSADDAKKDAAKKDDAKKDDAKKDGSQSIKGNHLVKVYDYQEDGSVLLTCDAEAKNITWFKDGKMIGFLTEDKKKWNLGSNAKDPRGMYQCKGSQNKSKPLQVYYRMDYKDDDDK
From the text: The gamma and epsilon subunits of the human CD3 complex (human CD3eg linker) were linked by a 29-mer linker and a Flag-tag was fused to the C-terminal end of the gamma subunit (SEQ ID NO: 169). This construct was expressed transiently using FreeStyle293F cell line (Thermo Fisher). Conditioned media expressing human CD3eg linker was concentrated using a column packed with Q HP resins (GE healthcare) and then applied to FLAG-tag affinity chromatography. Fractions containing human CD3eg linker were collected and subsequently subjected to a Superdex 200 gel filtration column (GE healthcare) equilibrated with 1×D-PBS. Fractions containing human CD3eg linker were then pooled and stored at −80 degrees C.
as §1

T1 sequence (Q07011 with tags, fused parts or gaps): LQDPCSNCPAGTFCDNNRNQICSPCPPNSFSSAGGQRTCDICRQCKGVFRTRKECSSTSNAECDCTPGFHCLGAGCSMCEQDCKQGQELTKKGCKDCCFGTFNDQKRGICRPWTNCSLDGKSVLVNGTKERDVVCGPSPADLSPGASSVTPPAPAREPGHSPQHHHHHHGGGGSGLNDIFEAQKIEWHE

Molecule	CD137 Koff (recombinant human CD137) [s⁻¹]	CD137 Kon (recombinant human CD137) [M⁻¹ s⁻¹]	CD3 Koff [1] [s⁻¹]	CD3 Kon [1] [M⁻¹ s⁻¹]	Kd [1] [nM]
H1610L0581: affinity matured Dual-Fab variant, VH SEQ ID NO 94, VL SEQ ID NO 143 (antibody, V domains shown) VH: QVQLVESGGGLVQPGRSLRLSCAASGFVFSNVWMHWVRQAPGKGLEWVAQIKDKWNAYAAYYAPSVKGRFTISRDDSKNSIYLQMNSLKTEDTAVYYCHYIHYASASTLLPAEGIDAWGQGTTVTVSS VL: DIVMTQSPLSLPVTPGEPASISCQPSQEVVHMNRNTYLHWYQQKPGQAPRLLIYKVSNRFPGVPDRFSGSGSGTDFTLKISRVEAEDVGVYYCAQGTSHPFTFGQGTKLEIK	0.0011	10700	0.00142	68000	–
H1571L0581: affinity matured Dual-Fab variant, VH SEQ ID NO 93, VL SEQ ID NO 143 (antibody, V domains shown) VH: QVQLVESGGGLVQPGRSLRLSCAASGFKFSNVWFHWVRQAPGKGLEWVAQIKDKYNAYATYYAPSVKGRFTISRDDSKNSIYLQMNSLKTEDTAVYYCHYVHYASASTLLPAFGVDAWGQGTTVTVSS VL: DIVMTQSPLSLPVTPGEPASISCQPSQEVVHMNRNTYLHWYQQKPGQAPRLLIYKVSNRFPGVPDRFSGSGSGTDFTLKISRVEAEDVGVYYCAQGTSHPFTFGQGTKLEIK	0.00105	12100	–	–	–
H1649L0943: affinity matured Dual-Fab variant, VH SEQ ID NO 97, VL SEQ ID NO 146 (antibody, V domains shown) VH: QVQLVESGGGLVQPGRSLRLSCAASGFVFSNVWFHWVRQAPGKGLEWVAQIKDKYNAYADYYAPSVKERFTISRDDSKNSIYLQMNSLKTEDTAVYYCHYVHYASASTLLPAEGVDAWGQGTTVTVSS VL: DIVMTQSPLSLPVTPGEPASISCQPSEEVVHMNRNTYLHWYQQKPGQAPRLLIYKVSNLFPGVPDRFSGSGSGTDFTLKISRVEAEDVGVYYCAQGTHHPFTFGQGTKLEIK	0.000468	14300	0.0481	61000	–
H1673L0943: affinity matured Dual-Fab variant, VH SEQ ID NO 100, VL SEQ ID NO 146 (antibody, V domains shown) VH: QVQLVESGGGLVQPGRSLRLSCAASGFVFSNVWFHWVRQAPGKGLEWVAQIKDKWNAYADYYAPSVKERFTISRDDSKNSIYLQMNSLKTEDTAVYYCHYIHYASASTLLPAEGIDAWGQGTTVTVSS VL: DIVMTQSPLSLPVTPGEPASISCQPSEEVVHMNRNTYLHWYQQKPGQAPRLLIYKVSNLFPGVPDRFSGSGSGTDFTLKISRVEAEDVGVYYCAQGTHHPFTFGQGTKLEIK	0.000722	12200	0.00116	55000	–
H1610L0939: affinity matured Dual-Fab variant, VH SEQ ID NO 94, VL SEQ ID NO 145 (antibody, V domains shown) VH: QVQLVESGGGLVQPGRSLRLSCAASGFVFSNVWMHWVRQAPGKGLEWVAQIKDKWNAYAAYYAPSVKGRFTISRDDSKNSIYLQMNSLKTEDTAVYYCHYIHYASASTLLPAEGIDAWGQGTTVTVSS VL: DIVMTQSPLSLPVTPGEPASISCQPSQEVVHMNRNTYLHWYQQKPGQAPRLLIYKVSNVFPGVPDRFSGSGSGTDFTLKISRVEAEDVGVYYCAQGTHHPFTFGQGTKLEIK	0.000801	13000	0.00253	50000	–
H0868L0581: affinity matured Dual-Fab variant, VH SEQ ID NO 91, VL SEQ ID NO 143 (antibody, V domains shown) VH: QVQLVESGGGLVQPGRSLRLSCAASGFKFSNVWMHWVRQAPGKGLEWVAQIKDKYNAYAAYYAPSVKGRFTISRDDSKNSIYLQMNSLKTEDTAVYYCHYVHYASASTLLPAFGVDAWGQGTTVTVSS VL: DIVMTQSPLSLPVTPGEPASISCQPSQEVVHMNRNTYLHWYQQKPGQAPRLLIYKVSNRFPGVPDRFSGSGSGTDFTLKISRVEAEDVGVYYCAQGTSHPFTFGQGTKLEIK	0.00136	12200	–	–	–
H1652L0943: affinity matured Dual-Fab variant, VH SEQ ID NO 99, VL SEQ ID NO 146 (antibody, V domains shown) VH: QVQLVESGGGLVQPGRSLRLSCAASGFVFSNVWFHWVRQAPGKGLEWVAQIKDYYNAYADYYAPSVEGRFTISRDDSKNSIYLQMNSLKTEDTAVYYCHYVHYASASTLLPAEGVDAWGQGTTVTVSS VL: DIVMTQSPLSLPVTPGEPASISCQPSEEVVHMNRNTYLHWYQQKPGQAPRLLIYKVSNLFPGVPDRFSGSGSGTDFTLKISRVEAEDVGVYYCAQGTHHPFTFGQGTKLEIK	0.00047	12900	0.0636	62300	1020
H1649L0581: affinity matured Dual-Fab variant, VH SEQ ID NO 97, VL SEQ ID NO 143 (antibody, V domains shown) VH: QVQLVESGGGLVQPGRSLRLSCAASGFVFSNVWFHWVRQAPGKGLEWVAQIKDKYNAYADYYAPSVKERFTISRDDSKNSIYLQMNSLKTEDTAVYYCHYVHYASASTLLPAEGVDAWGQGTTVTVSS VL: DIVMTQSPLSLPVTPGEPASISCQPSQEVVHMNRNTYLHWYQQKPGQAPRLLIYKVSNRFPGVPDRFSGSGSGTDFTLKISRVEAEDVGVYYCAQGTSHPFTFGQGTKLEIK	0.000553	12900	0.0336	75000	–
H1647L0581: affinity matured Dual-Fab variant, VH SEQ ID NO 96, VL SEQ ID NO 143 (antibody, V domains shown) VH: QVQLVESGGGLVQPGRSLRLSCAASGFKFSNTWFHWVRQAPGKGLEWVAQIKDYYNDYAAYYAPSVKGRFTISRDDSKNSIYLQMNSLKTEDTAVYYCHYVHYASASTLLPAEGVDAWGQGTTVTVSS VL: DIVMTQSPLSLPVTPGEPASISCQPSQEVVHMNRNTYLHWYQQKPGQAPRLLIYKVSNRFPGVPDRFSGSGSGTDFTLKISRVEAEDVGVYYCAQGTSHPFTFGQGTKLEIK	0.000647	9980	–	–	–
H1651L0581: affinity matured Dual-Fab variant, VH SEQ ID NO 98, VL SEQ ID NO 143 (antibody, V domains shown) VH: QVQLVESGGGLVQPGRSLRLSCAASGFVFSNVWFHWVRQAPGKGLEWVAQIKDKYNAYADYYAPSVEGRFTISRDDSKNSIYLQMNSLKTEDTAVYYCHYVHYASASTLLPAEGVDAWGQGTTVTVSS VL: DIVMTQSPLSLPVTPGEPASISCQPSQEVVHMNRNTYLHWYQQKPGQAPRLLIYKVSNRFPGVPDRFSGSGSGTDFTLKISRVEAEDVGVYYCAQGTSHPFTFGQGTKLEIK	0.000603	14000	0.0371	71800	–
H1673L0581: affinity matured Dual-Fab variant, VH SEQ ID NO 100, VL SEQ ID NO 143 (antibody, V domains shown) VH: QVQLVESGGGLVQPGRSLRLSCAASGFVFSNVWFHWVRQAPGKGLEWVAQIKDKWNAYADYYAPSVKERFTISRDDSKNSIYLQMNSLKTEDTAVYYCHYIHYASASTLLPAEGIDAWGQGTTVTVSS VL: DIVMTQSPLSLPVTPGEPASISCQPSQEVVHMNRNTYLHWYQQKPGQAPRLLIYKVSNRFPGVPDRFSGSGSGTDFTLKISRVEAEDVGVYYCAQGTSHPFTFGQGTKLEIK	0.00096	11900	0.00106	79600	–
H1643L0581: affinity matured Dual-Fab variant, VH SEQ ID NO 95, VL SEQ ID NO 143 (antibody, V domains shown) VH: QVQLVESGGGLVQPGRSLRLSCAASGFKFSNVWFHWVRQAPGKGLEWVAQIKDYYNAYAAYYAPSVKGRFTISRDDSKNSIYLQMNSLKTEDTAVYYCHYVHYASASTLLPAEGVDAWGQGTTVTVSS VL: DIVMTQSPLSLPVTPGEPASISCQPSQEVVHMNRNTYLHWYQQKPGQAPRLLIYKVSNRFPGVPDRFSGSGSGTDFTLKISRVEAEDVGVYYCAQGTSHPFTFGQGTKLEIK	0.000606	12300	0.0251	94600	–
